From patent US20240409620A1 (published 2024)
Read-outs that look alike come from different tables or passages of the source.

What was measured:
[1] = target: T1, RSV/A/A2 pre-fusion F protein (respiratory syncytial virus RSV/A/A2, UniProt P03420 26-109); test: BLI
[2] = target: T2, RSV/B/B9320 pre-fusion F protein (respiratory syncytial virus RSV/B/B9320); test: BLI
[3] = target: T1, RSV/A/A2 pre-fusion F protein; test: BLI; remark: listed apart in the source
[4] = target: T1, RSV/A/A2 pre-fusion F protein; test: ELISA
[5] = target: T2, RSV/B/B9320 pre-fusion F protein; test: ELISA

Row | Binder | Kd [1] [pM] | Kd [2] [pM] | Kd [3] [pM] | EC50 [4] [µg/mL] | EC50 [5] [µg/mL]
1 | Palivizumab (SYNAGIS) (antibody, V domains shown) VH: QVTLRESGPALVKPTQTLTLTCTFSGFSLSTSGMSVGWIRQPPGKALEWLADIWWDDKKDYNPSLKSRLTISKDTSKNQVVLKVTNMDPADTATYYCARSMITNWYFDVWGAGTTVTVSS VL: DIQMTQSPSTLSASVGDRVTITCKCQLSVGYMHWYQQKPGKAPKLLIYDTSKLASGVPSRFSGSGSGTEFTLTISSLQPDDFATYYCFQGSGYPFTFGGGTKLEIK | 40.7 | 362 | – | – | –
2 | 4F1En1 (VH-S75R) (antibody, V domains shown) VH: QVQLVESGGGVVQPGRSLRLSCAASGFSFYSYSVHWVRQAPGKGLEWVADVVYDGNHQHYTDSVKGRFTISRDTRKNTVYLQMGSLRAEDTALYYCTARSLVITLAGAGRDDYWGQGTTVTVSS VL: DIVMTQSPLSLPVTPGEPASISCRSSQSLLHSNGYTYLDWYLQKPGQSPQLLIFLGSSRASGVPDRFSGSGSGTDFTLKISRVEAEDVGVYYCVQDLQTSLTFGGGTKLEIKR | – | 1.8 | < 1 | 0.0245 | 0.0565
3 | fully human monoclonal antibody 4F1 wild type (antibody, V domains shown) VH: EVQLVQSGGGVVRPGRSLRLSCAASGFSFYSYSVHWVRQAPGKGLEWVADVVYDGNHQHYTESVRGRFSISRDTSTNTVYLQMGSLRPEDTALYYCTARSLVITLAGAGRDDYWGQGTRVTVSS VL: DIVMTQSPLSLSVTPGEPASISCKSSQSLLHSNGYTYLDWYLQKPGKSPQLLIFLGSSRASGVPARFSGSGSGTDFTLEISRVEAEDVGVYYCVQDLQTSLTFGGGTKVDIK | – | 68.4 | – | – | 0.111
4 | 4F1 germline reversion (antibody, V domains shown) VH: QVQLVESGGGVVQPGRSLRLSCAASGFSFYSYSVHWVRQAPGKGLEWVADVVYDGNHQHYTDSVKGRFTISRDTSKNTVYLQMGSLRAEDTALYYCTARSLVITLAGAGRDDYWGQGTTVTVSS VL: DIVMTQSPLSLPVTPGEPASISCRSSQSLLHSNGYTYLDWYLQKPGQSPQLLIFLGSSRASGVPDRFSGSGSGTDFTLKISRVEAEDVGVYYCVQDLQTSLTFGGGTKLEIKR | – | – | – | 0.0536 | 0.0781
5 | MEDI8897 (antibody, V domains shown) VH: QVQLVQSGAEVKKPGSSVMVSCQASGGLLEDYIINWVRQAPGQGPEWMGGIIPVLGTVHYGPKFQGRVTITADESTDTAYMELSSLRSEDTAMYYCATETALVVSETYLPHYFDNWGQGTLVTVSS VL: DIQMTQSPSSLSAAVGDRVTITCQASQDIVNYLNWYQQKPGKAPKLLIYVASNLETGVPSRFSGSGSGTDFSLTISSLQPEDVATYYCQQYDNLPLTFGGGTKVEIK | 17.2 | 660 | – | – | –
